Laboratory results reported in paper PMC10338342, “Cooperation between bHLH transcription factors and histones for DNA access” (Nature, 2023).
Each block holds one binder with its values, some of them ahead of it.

B1: BMAL1 bHLH PAS-AB (residues 62-441), chain of the CLOCK-BMAL1 heterodimer (domain or fragment)
chain: not shown
notes: BMAL1, mouse, bHLH PAS-AB, residues 62-441; Always present as part of m1; made a molecule of its own for the contacts that the structures and cross-links assign to BMAL1

Legend:
[1] = target: T1, histone H4 (human), in the nucleosome (human, UniProt P62805 1-103); test: cryo-EM structure; CLOCK-BMAL1 on a W601-variant nucleosome with a histone-facing E-box at SHL−6.2 (1:3 NCP:TF), GraFix cross-linked; 3.8 Å overall; PAS domains placed by Rosetta local docking with density scoring and one cross-link; conditions: both partners purified
T1 construct: Always part of m4; source: in the reconstituted nucleosome

[2] = target: histone H3.1 (human), in the nucleosome (human, UniProt P68431 1-136); test: cross-linking; XL-MS with DSSO, TF and nucleosome mixed 1.5:1; CLOCK-BMAL1 with NCP SHL−6.2; conditions: both partners purified
[3] = target: T1, histone H4 (human), in the nucleosome; test: cryo-EM structure; CLOCK-BMAL1 on the endogenous Por enhancer nucleosome with tandem E-boxes 7 bp apart (1:3), GraFix cross-linked; 3.8 Å overall; conditions: both partners purified
[4] = target: B1; test: cryo-EM structure; CLOCK-BMAL1 on a W601-variant nucleosome with a solvent-exposed E-box at SHL+5.8 (1:1.5 NCP:TF), GraFix glutaraldehyde cross-linked; 3.6 Å overall, PAS domains 9-11 Å; conditions: both partners purified
[5] = target: the molecule itself; test: cryo-EM structure; CLOCK-BMAL1 on the endogenous Por enhancer nucleosome with tandem E-boxes 7 bp apart (1:3), GraFix cross-linked; 3.8 Å overall
[6] = target: T2, mouse BMAL1 bHLH (residues 73–135) with an additional C-terminal tryptophan (mouse, UniProt Q9WTL8 73-135); test: SEC; CLOCK bHLH and BMAL1 bHLH purified separately, mixed at equimolar ratios, about one hour on ice, S75 10/300 GL column; conditions: both partners purified
T2 construct: BMAL1, mouse, bHLH, residues 73-135; additional tryptophan engineered at the C terminus to allow for UV detection; source: E. coli vector (pET28-derived), expressed and purified separately (HisTrap HP)

Binder: B1
binding result [1]: binds
binding result [2]: binds

B3: CLOCK-BMAL1 bHLH PAS-AB heterodimer (complex)
chain 1: VEEDDKDKAKRVSRNKSEKKRRDQFNVLIKELGSMLPGNARKMDKSTVLQKSIDFLRKHKETTAQSDASEIRQDWKPTFLSNEEFTQLMLEALDGFFLAIMTDGSIIYVSESVTSLLEHLPSDLVDQSIFNFIPEGEHSEVYKILSTHLLESDSLTPEYLKSKNQLEFCCHMLRGTIDPKEPSTYEYVRFIGNFKSLTSVSTSTHNGFEGTIQRTHRPSYEDRVCFVATVRLATPQFIKEMCTVEEPNEEFTSRHSLEWKFLFLDHRAPPIIGYLPFEVLGTSGYDYYHVDDLENLAKCHEHLMQYGKGKSCYYRFLTKGQQWIWLQTHYYITYHQWNSRPEFIVCTHTVVSYAEVRAERRRELGIEESL
chain 2: not shown
notes: CLOCK, mouse, bHLH PAS-AB, residues 26-395; BMAL1, mouse, bHLH PAS-AB, residues 62-441; also called CB; CLOCK-BMAL1 WT; source: insect cells (Spodoptera frugiperda or Hi5), purified (Ni-NTA, TEV cleavage, heparin, Superdex 200); copies: 1 + 1
binding result [5]: binds

Now from value to binder:

binding result [3]: binds
binding result [4]: binds
B2: CLOCK bHLH PAS-AB (residues 26-395), chain of the CLOCK-BMAL1 heterodimer (domain or fragment, mouse, UniProt O08785 26-395, looked up)
chain: VEEDDKDKAKRVSRNKSEKKRRDQFNVLIKELGSMLPGNARKMDKSTVLQKSIDFLRKHKETTAQSDASEIRQDWKPTFLSNEEFTQLMLEALDGFFLAIMTDGSIIYVSESVTSLLEHLPSDLVDQSIFNFIPEGEHSEVYKILSTHLLESDSLTPEYLKSKNQLEFCCHMLRGTIDPKEPSTYEYVRFIGNFKSLTSVSTSTHNGFEGTIQRTHRPSYEDRVCFVATVRLATPQFIKEMCTVEEPNEEFTSRHSLEWKFLFLDHRAPPIIGYLPFEVLGTSGYDYYHVDDLENLAKCHEHLMQYGKGKSCYYRFLTKGQQWIWLQTHYYITYHQWNSRPEFIVCTHTVVSYAEVRAERRRELGIEESL
notes: CLOCK, mouse, bHLH PAS-AB, residues 26-395; Always present as part of m1; made a molecule of its own for the contacts that the structures and cross-links assign to CLOCK

binding result [6]: binds
B4: mouse CLOCK bHLH (residues 29–89) with an additional C-terminal tryptophan (domain or fragment)
chain: DDKDKAKRVSRNKSEKKRRDQFNVLIKELGSMLPGNARKMDKSTVLQKSIDFLRKHKETTAW
notes: CLOCK, mouse, bHLH, residues 29-89; additional tryptophan engineered at the C terminus to allow for UV detection; source: E. coli vector (pET28-derived), expressed and purified separately (HisTrap HP)
